Experimental findings from publication PMC6409784, “Chlorambucil Conjugated Ugi Dendrimers with PAMAM-NH2 Core and Evaluation of Their Anticancer Activity” (Pharmaceutics, 2019) are described below.

The nature of series [1]: Solubility of dendrimers. Conditions: at 20 mg/mL.
Series [2] has as its system NIH3T3 fibroblasts. Kind of series: CV viability assay on non-cancerous fibroblasts. Conditions: at the IC50 determined for PC-3 (7.3 µM), CV and MTT, 72 h. The class given is cell-based, mouse.
Series [3] has as its system PC-3 cells. Conditions: read-out: IC50, CV assay, PC-3, 72 h.
The subject of series [4] is PC-3 cells. Conditions: read-out: IC50, MTT assay, PC-3, 72 h.
The subject of series [5] is NIH3T3 fibroblasts. As to conditions: read-out: IC50 NIH3T3, MTT; NIH3T3 mouse fibroblasts, 72 h, MTT assay.
Series [6] relates to PC-3 prostate cancer cell line. In words: Viability by CV and MTT assays (fast screening / dose response). The class given is cell-based, human. Conditions: 20 µM free chlorambucil, 72 h. Background: Tetrazolium assays rely on reduction of a dye to a coloured formazan, in cell work by metabolically active cells.
Series [7] has as its system PC-3 cells. In words: cells. As to conditions: Homo sapiens, PC-3, 72 h, read-out: IC50, CV assay, PC-3.
Series [8] concerns PC-3 cells. Kind of series: cells. Conditions: Homo sapiens, PC-3, 72 h, read-out: IC50, MTT assay, PC-3.

Like-named read-outs stand apart in the source and are kept apart here. Some results are limits rather than exact numbers.

`CC(C)C(C(=O)NCCOCCOCCNC(=O)OC(C)(C)C)N(CCNC(=O)CCN(CCC(=O)NCCN(C(=O)CCCc1ccc(N(CCCl)CCCl)cc1)C(C(=O)NCCOCCOCCNC(=O)OC(C)(C)C)C(C)C)CCN(CCC(=O)NCCN(C(=O)CCCc1ccc(N(CCCl)CCCl)cc1)C(C(=O)NCCOCCOCCNC(=O)OC(C)(C)C)C(C)C)CCC(=O)NCCN(C(=O)CCCc1ccc(N(CCCl)CCCl)cc1)C(C(=O)NCCOCCOCCNC(=O)OC(C)(C)C)C(C)C)C(=O)CCCc1ccc(N(CCCl)CCCl)cc1` (centres unmarked) [Dendrimer 1a]: in series [1], the Solubility result was “Low”. For orientation: IC50 means the concentration needed to halve the response being measured. Consider `CC(C)C(C(=O)NCCOCCOCCN)N(CCNC(=O)CCN(CCC(=O)NCCN(C(=O)CCCc1ccc(N(CCCl)CCCl)cc1)C(C(=O)NCCOCCOCCN)C(C)C)CCN(CCC(=O)NCCN(C(=O)CCCc1ccc(N(CCCl)CCCl)cc1)C(C(=O)NCCOCCOCCN)C(C)C)CCC(=O)NCCN(C(=O)CCCc1ccc(N(CCCl)CCCl)cc1)C(C(=O)NCCOCCOCCN)C(C)C)C(=O)CCCc1ccc(N(CCCl)CCCl)cc1` (centres unmarked) [Dendrimer 1b], for which the “effect on NIH3T3 cell growth” value in series [2] was “did not affect NIH3T3 cell growth at all”. Further, the results for the IC50 in series [3], in series [4] and in series [5] were 3.65 ± 0.56 µM, 7.29 ± 1.18 µM and 74.4 ± 2.31 µM, respectively. Moreover, the Solubility entry in series [1] is listed as “High”. For `COC(=O)CCCNC(=O)C(C(C)C)N(CCNC(=O)CCN(CCC(=O)NCCN(C(=O)CCCc1ccc(N(CCCl)CCCl)cc1)C(C(=O)NCCCC(=O)OC)C(C)C)CCN(CCC(=O)NCCN(C(=O)CCCc1ccc(N(CCCl)CCCl)cc1)C(C(=O)NCCCC(=O)OC)C(C)C)CCC(=O)NCCN(C(=O)CCCc1ccc(N(CCCl)CCCl)cc1)C(C(=O)NCCCC(=O)OC)C(C)C)C(=O)CCCc1ccc(N(CCCl)CCCl)cc1` (centres unmarked) [Dendrimer 2a], the Solubility result in series [1] is on record as “Low”. Same read-out and setting: the value for `COC(=O)CCCNC(=O)C(C(C)C)N(CCNC(=O)CCN(CCC(=O)NCCN(C(=O)CCCc1ccc(N(CCCl)CCCl)cc1)C(C(=O)NCCCC(=O)OC)C(C)C)CCN(CCC(=O)NCCN(C(=O)CCCc1ccc(N(CCCl)CCCl)cc1)C(C(=O)NCCCC(=O)OC)C(C)C)CCC(=O)NCCN(C(=O)CCCc1ccc(N(CCCl)CCCl)cc1)C(C(=O)NCCCC(=O)OC)C(C)C)C(=O)CCCC[C@@H]1SC[C@@H]2NC(=O)N[C@@H]21` (some centres unmarked) [Dendrimer 3a] was “Low”; that for `CC(C)C(C(=O)NCCCC(=O)O)N(CCNC(=O)CCN(CCC(=O)NCCN(C(=O)CCCc1ccc(N(CCCl)CCCl)cc1)C(C(=O)NCCCC(=O)O)C(C)C)CCN(CCC(=O)NCCN(C(=O)CCCc1ccc(N(CCCl)CCCl)cc1)C(C(=O)NCCCC(=O)O)C(C)C)CCC(=O)NCCN(C(=O)CCCc1ccc(N(CCCl)CCCl)cc1)C(C(=O)NCCCC(=O)O)C(C)C)C(=O)CCCC[C@@H]1SC[C@@H]2NC(=O)N[C@@H]21` (some centres unmarked) [Dendrimer 3b] was “High”.

`COC(=O)CCCNC(=O)C(C(C)C)N(CCNC(=O)CCN(CCC(=O)NCCN(C(=O)CCCC[C@@H]1SC[C@@H]2NC(=O)N[C@@H]21)C(C(=O)NCCCC(=O)OC)C(C)C)CCN(CCC(=O)NCCN(C(=O)CCCC[C@@H]1SC[C@@H]2NC(=O)N[C@@H]21)C(C(=O)NCCCC(=O)OC)C(C)C)CCC(=O)NCCN(C(=O)CCCc1ccc(N(CCCl)CCCl)cc1)C(C(=O)NCCCC(=O)OC)C(C)C)C(=O)CCCC[C@@H]1SC[C@@H]2NC(=O)N[C@@H]21` (some centres unmarked) [Dendrimer 5a]: in series [1], the Solubility entry is on record as “Low”. Turning to `CC(C)C(C(=O)NCCCC(=O)O)N(CCNC(=O)CCN(CCC(=O)NCCN(C(=O)CCCC[C@@H]1SC[C@@H]2NC(=O)N[C@@H]21)C(C(=O)NCCCC(=O)O)C(C)C)CCN(CCC(=O)NCCN(C(=O)CCCC[C@@H]1SC[C@@H]2NC(=O)N[C@@H]21)C(C(=O)NCCCC(=O)O)C(C)C)CCC(=O)NCCN(C(=O)CCCc1ccc(N(CCCl)CCCl)cc1)C(C(=O)NCCCC(=O)O)C(C)C)C(=O)CCCC[C@@H]1SC[C@@H]2NC(=O)N[C@@H]21` (some centres unmarked) [Dendrimer 5b], the Solubility result in series [1] is reported as “High”. As for `O=C(O)CCCc1ccc(N(CCCl)CCCl)cc1` [chlorambucil], the “activity of free agent on PC-3 cells” value in series [6] is “almost no activity”. Also, the IC50 in series [7] and in series [8] was > 100 µM each time.
